{"source": "patent US10973762B2", "about": "“Active-targeting-type polymer derivative, composition containing said polymer derivative, and uses of said polymer derivative and said composition” (Nippon Kayaku Kabushiki Kaisha, priority 2016, dated 2021)", "key": {"integrin αVβ3": {"target": "T1, integrin αVβ3 (Mus musculus, UniProt O54890+P43406)", "T1 construct": "purchased R&D Systems, Inc", "T1 sequence (P43406 31-988 limits assumed)": "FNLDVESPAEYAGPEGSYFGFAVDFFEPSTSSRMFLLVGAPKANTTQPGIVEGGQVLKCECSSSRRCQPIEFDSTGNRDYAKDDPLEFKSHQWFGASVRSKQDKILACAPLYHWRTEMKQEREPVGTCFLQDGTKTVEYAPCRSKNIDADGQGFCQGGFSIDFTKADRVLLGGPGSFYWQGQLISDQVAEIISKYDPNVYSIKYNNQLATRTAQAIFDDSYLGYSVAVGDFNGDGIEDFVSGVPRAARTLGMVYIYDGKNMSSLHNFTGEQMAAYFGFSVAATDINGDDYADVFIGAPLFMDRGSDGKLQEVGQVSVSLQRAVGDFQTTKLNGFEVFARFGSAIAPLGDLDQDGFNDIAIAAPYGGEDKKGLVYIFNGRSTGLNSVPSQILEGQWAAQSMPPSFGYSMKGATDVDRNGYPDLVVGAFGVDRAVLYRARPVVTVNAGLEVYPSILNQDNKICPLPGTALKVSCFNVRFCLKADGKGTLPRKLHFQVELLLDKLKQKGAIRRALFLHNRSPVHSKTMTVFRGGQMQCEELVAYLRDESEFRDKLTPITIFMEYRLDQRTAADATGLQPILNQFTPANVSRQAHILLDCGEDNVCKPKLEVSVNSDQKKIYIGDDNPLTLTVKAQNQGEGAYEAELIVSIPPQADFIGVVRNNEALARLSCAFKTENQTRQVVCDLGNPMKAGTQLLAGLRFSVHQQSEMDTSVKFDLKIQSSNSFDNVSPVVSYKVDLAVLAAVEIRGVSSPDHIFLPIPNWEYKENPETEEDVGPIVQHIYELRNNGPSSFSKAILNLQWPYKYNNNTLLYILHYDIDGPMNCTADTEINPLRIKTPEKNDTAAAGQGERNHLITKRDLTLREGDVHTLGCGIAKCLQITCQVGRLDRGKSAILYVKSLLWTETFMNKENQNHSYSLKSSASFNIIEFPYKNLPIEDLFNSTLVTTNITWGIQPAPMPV", "T1 sequence (O54890 26-717 limits assumed)": "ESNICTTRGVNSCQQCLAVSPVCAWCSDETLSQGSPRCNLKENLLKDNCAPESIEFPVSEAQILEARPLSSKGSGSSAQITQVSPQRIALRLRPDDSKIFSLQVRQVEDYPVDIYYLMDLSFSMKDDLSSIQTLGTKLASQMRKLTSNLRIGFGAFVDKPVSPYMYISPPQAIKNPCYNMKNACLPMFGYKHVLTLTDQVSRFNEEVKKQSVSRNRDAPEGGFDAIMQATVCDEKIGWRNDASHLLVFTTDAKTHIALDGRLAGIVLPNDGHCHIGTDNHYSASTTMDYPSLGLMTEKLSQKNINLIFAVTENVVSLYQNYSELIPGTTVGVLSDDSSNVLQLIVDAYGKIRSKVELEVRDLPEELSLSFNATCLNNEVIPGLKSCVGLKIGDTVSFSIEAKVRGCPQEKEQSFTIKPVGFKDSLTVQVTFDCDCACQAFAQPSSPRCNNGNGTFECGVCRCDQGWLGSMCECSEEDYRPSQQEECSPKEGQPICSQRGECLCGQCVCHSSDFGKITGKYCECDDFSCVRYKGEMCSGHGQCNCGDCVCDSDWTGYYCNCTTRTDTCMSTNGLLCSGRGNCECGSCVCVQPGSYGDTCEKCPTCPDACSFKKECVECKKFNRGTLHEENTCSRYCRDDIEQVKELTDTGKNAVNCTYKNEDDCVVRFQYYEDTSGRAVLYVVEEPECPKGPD", "assay": "Integrin binding assay (inhibition of biotinylated vitronectin binding)", "conditions": "dilution series, absorbance at 450 nm", "description": "100 μL each of 1 μg/mL Recombinant Mouse Integrin alpha V beta 3 Protein (R&D Systems, Inc.) produced with PBS(−) was added to a 96-well Costar high capacity binding plate, and the plate was left to stand overnight at 4° C. to thereby bind integrin αVβ3 to the bottom face of the wells. Subsequently, integrin αVβ3 in the wells was removed by suctioning, and 200 μL of a Blocking/Binding buffer (50 mM Tris HCl at pH 7.4, 100 mM NaCl, 2 mM CaCl2, 1 mM MgCl2, 1 mM MnCl2, 1% BSA) was added to each well. Blocking was performed at an interval of one hour at room temperature.\n100 μL of biotinylated vitronectin (1 μg/mL) obtained by biotinylated human recombinant vitronectin (Wako Pure Chemical Industries, Ltd.) was added in advance into each well using Biotin Labeling Kit-NH2 (Dojindo Molecular Technologies, Inc.), and the plate was left to stand at room temperature for 3 hours. Subsequently, the wells were washed three times using 200 μL of Blocking/Binding buffer, and 100 μL of streptavidin-HRP (GE Healthcare) diluted 10,000 times with the Blocking/Binding buffer was added to each well. The mixture was left to stand for one hour at room temperature. The wells were washed two times using 200 μL of the Blocking/Binding buffer. […]\nWithin 30 minutes after the addition, the absorbance at 450 nm was measured, and the binding ratio of biotinylated vitronectin to integrin αVβ3 was calculated."}, "[1]": {"assay": "Test Example 4: tissue distribution in kidney (fluorescence of sections)", "format": "in vivo, nude mice", "conditions": "i.v. 5 mg/kg in terms of fluorescent substance", "description": "(§1) A suspension of cultured cancer cell human glioma U87MG was subcutaneously transplanted on the dorsal sides of nude mice using an injection needle-attached syringe. Example 7, Comparative Example 2, and Comparative Example 3 were dissolved in a 5% glucose injectable solution, and each of the solutions was intravenously administered a single time in an amount of 5 mg/kg in terms of 2-(2-aminoethoxy)-9-(diethylamino)-5H-benzo[a]phenoxazin-5-one.\n(§2) After one hour and after 24 hours from the administration, the mice were exsanguinated under isoflurane anesthesia, and frozen embedded sections of extracted tumor and kidney were produced. Fluorescence derived from 2-(2-aminoethoxy)-9-(diethylamino)-5H-benzo[a]phenoxazin-5-one in the administered composition was observed.\n(§3) Furthermore, based on those images, the luminance was calculated using Image-Pro Premier (Media Cybernetics, Inc.), and the values of luminance of tumor tissue sections are shown in FIG. 9, while the values of luminance of kidney tissue sections are shown in FIG. 11."}, "[2]": {"assay": "Average particle size, single nanoparticle size analyzer IG-1000", "format": "physicochemical", "description": "The measurement of the average particle size of the compositions including block copolymers of Examples 3 to 10 and Comparative Examples 1 to 6 was carried out using a single nanoparticle size analyzer, IG-1000, manufactured by Shimadzu Corp. (measurement temperature: 25° C., light intensity at t=0: 100 to 200).\nRegarding a sample for measuring the average particle size, a solution produced to have a concentration of 2 mg/mL or 5 mg/mL in terms of the composition weight and filtered through a 0.45-μm membrane filter, was used."}, "[3]": {"assay": "Test for drug releasability into phosphate buffer solution", "format": "physicochemical", "conditions": "phosphate buffer solution pH 7.4, 37° C., 6 hours, 1.0 mg/mL, absence of enzyme", "description": "Example 7, Example 8, and Comparative Example 3 were respectively dissolved in a phosphate buffer solution (pH 7.4) at a concentration of 1.0 mg/mL in terms of the composition weight, and the solutions were left to stand at a constant temperature of 37° C. The amount of 7-ethyl-10-hydroxycamptothecin (EHC) released was measured over time by HPLC, and the proportion of the amount of EHC released with respect to the total amount of EHC in the compound used was determined."}, "human glioma U87MG": {"test_system": "human glioma U87MG", "assay": "Test Example 4: tissue distribution in tumor (fluorescence of sections)", "format": "in vivo, nude mice", "conditions": "one hour after i.v. administration, 5 mg/kg in terms of fluorescent substance", "description": "as §1, §2, §3"}}}
{"substance": "4-phenyl-1-butanol-bonded and 2-(2-aminoethoxy)-9-(diethylamino)-5H-benzo[a]phenoxazin-5-one-bonded product of polyethylene glycol (10 kilodaltons)-polyglutamic acid (21.0 polymerizations) block copolymer [Comparative Example 1]", "values": [{"measurement": "inhibition of binding of vitronectin and integrin αVβ3", "setting": "integrin αVβ3", "result": "not recognized"}]}
{"substance": "7-ethyl-10-hydroxycamptothecin (EHC)-bonded and 2-(2-aminoethoxy)-9-(diethylamino)-5H-benzo[a]phenoxazin-5-one-bonded product of polyethylene glycol (2 kilodaltons)-polyglutamic acid (7.59 polymerizations) block copolymer [Comparative Example 3]", "values": [{"measurement": "distribution of fluorescence in kidney", "setting": "[1]", "result": "fluorescence was observed in the blood vessels and the renal tubules"}, {"measurement": "average particle size", "setting": "[2]; 2 mg/mL", "result": 13, "unit": "nm"}, {"measurement": "EHC release (proportion of EHC released with respect to total EHC)", "setting": "[3]", "result": 61, "unit": "%"}, {"measurement": "distribution of fluorescence in tumor", "setting": "human glioma U87MG", "result": "penetrated into the entire tumor compared to Comparative Example 2"}]}
{"substance": "7-ethyl-10-hydroxycamptothecin (EHC)-bonded and 2-(2-aminoethoxy)-9-(diethylamino)-5H-benzo[a]phenoxazin-5-one-bonded product of polyethylene glycol (12 kilodaltons)-polyglutamic acid (22.0 polymerizations) block copolymer [Comparative Example 2]", "values": [{"measurement": "distribution of fluorescence in kidney", "setting": "[1]", "result": "fluorescence was not recognized in areas other than in the blood vessels"}, {"measurement": "average particle size", "setting": "[2]; 5 mg/mL", "result": 23, "unit": "nm"}]}
